# According to patent publication US10973880B2, “Compositions and methods for treating pulmonary hypertension” (Acceleron Pharma Inc., priority 2016, dated 2021):
# B1: ALK4-Fc:ActRIIB-Fc heterodimer: heteromeric complex of extracellular domains of human ActRIIB and human ALK4, each separately fused to an Fc domain with a linker (protein)
# chain 1: SGPRGVQALLCACTSCLQANYTCETDGACMVSIFNLDGMEHHVRTCIPKVELVPAGKPFYCLSSEDLRNTHCCYTDYCNRIDLRVPSGHLKEPEHPSMWGPVE
# chain 2: GRGEAETRECIYYNANWELERTNQSGLERCEGEQDKRLHCYASWRNSSGTIELVKKGCWLDDFNCYDRQECVATEENPQVYFCCCEGNFCNERFTHLPEAGGPEVTYEPPPTAPT
# modifications: left off: a dimerising Fc or GST; small tags and cut ends
# notes: heteromeric complex of extracellular domains of human ActRIIB and human ALK4, each separately fused to an Fc domain with a linker
# Assays:
# BMP10 [1] = target: T1, BMP10 (Homo sapiens, UniProt O95393); test: Biacore-based binding assay, receptor captured with anti-Fc antibody
# T1 sequence (O95393 317-424): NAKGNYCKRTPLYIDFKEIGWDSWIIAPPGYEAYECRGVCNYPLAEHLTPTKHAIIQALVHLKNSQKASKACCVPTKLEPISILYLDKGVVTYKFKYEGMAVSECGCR
# Description: (§1) A Biacore™-based binding assay was used to compare ligand binding selectivity of the ALK4-Fc:ActRIIB-Fc heterodimeric complex described above with that of ActRIIB-Fc and ALK4-Fc homodimer complexes. The ALK4-Fc:ActRIIB-Fc heterodimer, ActRIIB-Fc homodimer, and ALK4-Fc homodimer were independently captured onto the system using an anti-Fc antibody. Ligands were injected and allowed to flow over the captured receptor protein. Results are summarized in the table below, in which ligand off-rates (kd) most indicative of effective ligand traps are denoted in bold font.
# BMP6 = target: T2, BMP6 (Homo sapiens, UniProt P22004); test: as above
# T2 sequence (P22004 375-513): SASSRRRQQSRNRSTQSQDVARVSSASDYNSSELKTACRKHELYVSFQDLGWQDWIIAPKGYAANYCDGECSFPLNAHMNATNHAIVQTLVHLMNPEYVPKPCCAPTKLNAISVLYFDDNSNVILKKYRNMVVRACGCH
# Description: as §1
# BMP9 [2] = target: T3, BMP9 (Homo sapiens, UniProt Q9UK05); test: as above
# T3 sequence (Q9UK05 320-429): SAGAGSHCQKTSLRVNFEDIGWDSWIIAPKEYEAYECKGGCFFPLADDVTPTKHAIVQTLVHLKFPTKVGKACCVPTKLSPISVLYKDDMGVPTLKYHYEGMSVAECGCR
# Description: as §1
# GDF11 = target: T4, GDF11 (Homo sapiens, UniProt O95390); test: as above
# T4 sequence (O95390 299-407): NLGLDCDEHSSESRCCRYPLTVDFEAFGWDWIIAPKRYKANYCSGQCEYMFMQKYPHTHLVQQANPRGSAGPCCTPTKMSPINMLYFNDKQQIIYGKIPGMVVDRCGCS
# Description: as §1
# GDF3 = target: T5, GDF3 (Homo sapiens, UniProt Q9NR23); test: as above
# T5 sequence (Q9NR23 251-364): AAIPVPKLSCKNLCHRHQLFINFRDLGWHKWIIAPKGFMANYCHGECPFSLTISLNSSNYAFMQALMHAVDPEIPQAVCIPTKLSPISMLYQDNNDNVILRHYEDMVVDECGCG
# Description: as §1
# GDF8 = target: T6, GDF8 (Homo sapiens, UniProt O14793); test: as above
# T6 sequence (O14793 267-375): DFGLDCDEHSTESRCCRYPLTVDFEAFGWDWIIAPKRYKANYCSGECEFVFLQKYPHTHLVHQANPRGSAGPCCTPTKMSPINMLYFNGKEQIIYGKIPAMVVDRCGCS
# Description: as §1
# activin A = target: T7, activin A (Homo sapiens, UniProt P08476); test: as above
# T7 sequence (P08476 311-426): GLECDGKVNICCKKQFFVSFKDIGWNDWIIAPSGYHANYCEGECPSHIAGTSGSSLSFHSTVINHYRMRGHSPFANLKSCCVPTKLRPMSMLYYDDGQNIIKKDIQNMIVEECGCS
# Description: as §1
# activin B [3] = target: T8, activin B (Homo sapiens, UniProt P09529); test: as above
# T8 sequence (P09529 293-407): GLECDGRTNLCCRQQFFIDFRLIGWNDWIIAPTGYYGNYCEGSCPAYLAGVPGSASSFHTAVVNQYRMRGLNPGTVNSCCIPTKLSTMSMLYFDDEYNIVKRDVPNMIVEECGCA
# Description: as §1
# BMP10 [4] = target: T1, BMP10; test: A-204 reporter gene assay, pGL3(CAGA)12 luciferase; type: cell-based; design: host or cells: exogenous factor added to A-204 cells (human rhabdomyosarcoma); conditions: Example 13
# From the text: (§2) In addition, an A-204 Reporter Gene Assay was used to evaluate the effects of ALK4-Fc:ActRIIB-Fc heterodimer and ActRIIB-Fc:ActRIIB-Fc homodimer on signaling by activin A, activin B, GDF11, GDF8, BMP10, and BMP9. Cell line: Human Rhabdomyosarcoma (derived from muscle). Reporter vector: pGL3(CAGA)12 (as described in Dennler et al, 1998, EMBO 17: 3091-3100). The CAGA12 motif is present in TGFβ responsive genes (PAI-1 gene), so this vector is of general use for factors signaling through Smad2 and 3. An exemplary A-204 Reporter Gene Assay is outlined below. • Day 1: Split A-204 cells into 48-well plate. • Day 2: A-204 cells transfected with 10 ug pGL3(CAGA)12 or pGL3(CAGA)12(10 ug)+pRLCMV (1 ug) and Fugene. • Day 3: Add factors (diluted into medium+0.1% BSA). Inhibitors need to be pre-incubated with Factors for about one hr before adding to cells. About six hrs later, cells are rinsed with PBS and then lysed.
# (§3) Following the above steps, a Luciferase assay was performed.
# BMP9 [5] = target: T3, BMP9; test: A-204 reporter gene assay, pGL3(CAGA)12 luciferase; type: cell-based; design: host or cells: exogenous factor added to A-204 cells (human rhabdomyosarcoma); conditions: Example 13
# From the text: as §2, §3
# activin B [6] = target: T8, activin B; test: A-204 reporter gene assay, pGL3(CAGA)12 luciferase; type: cell-based; design: host or cells: exogenous factor added to A-204 cells (human rhabdomyosarcoma); conditions: Example 13
# From the text: as §2, §3
molecule,measurement,setting,value
B1,Kd,BMP10 [1],0.074 nM
same,"ka, BMP10",BMP10 [1],5.6e+07 M⁻¹ s⁻¹
same,"kd, BMP10",BMP10 [1],0.0041 s⁻¹
same,Kd,BMP6,2.7 nM
same,"ka, BMP6",BMP6,2e+06 M⁻¹ s⁻¹
same,"kd, BMP6",BMP6,0.0055 s⁻¹
same,Kd,BMP9 [2],3.4 nM
same,"ka, BMP9",BMP9 [2],Transient*
same,"kd, BMP9",BMP9 [2],Transient*
same,"ka, GDF11",GDF11,3.8e+07 M⁻¹ s⁻¹
same,"kd, GDF11",GDF11,0.00011 s⁻¹
same,Kd,GDF11; † = very low signal,0.003 nM
same,Kd,GDF3,4.9 nM
same,"ka, GDF3",GDF3,3.4e+06 M⁻¹ s⁻¹
same,"kd, GDF3",GDF3,0.017 s⁻¹
same,"ka, GDF8",GDF8,390000 M⁻¹ s⁻¹
same,"kd, GDF8",GDF8,0.00021 s⁻¹
same,Kd,GDF8; † = very low signal,0.55 nM
same,"ka, Activin A",activin A,1.3e+07 M⁻¹ s⁻¹
same,"kd, Activin A",activin A,0.00015 s⁻¹
same,Kd,activin B [3],0.006 nM
same,"ka, Activin B",activin B [3],7.1e+06 M⁻¹ s⁻¹
same,"kd, Activin B",activin B [3],4e-05 s⁻¹
same,inhibition of BMP10 signaling pathway compared to ActRIIB-Fc:ActRIIB-Fc homodimer,BMP10 [4],significantly reduced
same,inhibition of BMP9 signaling pathway compared to ActRIIB-Fc:ActRIIB-Fc homodimer,BMP9 [5],significantly reduced
same,inhibition of activin B signaling,activin B [6],potent inhibitors
